Experimental data taken from the supplement of paper PMC10567573.
± gives the standard deviation.

Test: protein stability index of a GFP-peptide fusion (GPS, HEK-293T) (PSI 1-6); higher = more stable
Settings: c terminus: a fixed tail appended
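Note: 24-mer peptide tiles fused after GFP, lentivirally expressed, FACS-sorted into six equal bins by GFP/DsRed ratio, decoded by Illumina sequencing, PSI is the read-weighted mean bin number.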

Sequence: GEKPYECQDCGRAFNQNSSLGRHK [ZNF8]
- protein stability index (treatment: DMSO): 3.19 ± 0.47
- protein stability index (treatment: MLN4924 1 uM, 8 h): 3.69 ± 0.23

Sequence: KREACHCEEVKMTVASEAKIQLSD [FAN1]
- protein stability index (treatment: DMSO): 4.76 ± 0.19
- protein stability index (treatment: MLN4924 1 uM, 8 h): 5 ± 0.18

Sequence: SGDDKNSNYFSMDSMEGKRSPYAG [TRIM29]
- protein stability index (treatment: DMSO): 4.5 ± 0.25
- protein stability index (treatment: MLN4924 1 uM, 8 h): 4.61 ± 0.24

Sequence: ILSKVQKNHVGKPLLKMDLNSEQA [FAM98B]
- protein stability index (treatment: DMSO): 3.62 ± 0.31
- protein stability index (treatment: MLN4924 1 uM, 8 h): 3.46 ± 0.47

Sequence: ASWMYQLQHGDQLSICFTCFKAAF [TEX19]
- protein stability index (treatment: DMSO): 2.59 ± 0.42
- protein stability index (treatment: MLN4924 1 uM, 8 h): 2.51 ± 0.53

Sequence: SSAAMQSSCSSTSGGGGGGGGGGG [CCDC6]
- protein stability index (treatment: DMSO): 5.2 ± 0.49
- protein stability index (treatment: MLN4924 1 uM, 8 h): 5.16 ± 0.19

Sequence: TEQAAEYVPEKVKKAEKKLEENPY [CSTF3]
- protein stability index (treatment: DMSO): 5.52 ± 0.3
- protein stability index (treatment: MLN4924 1 uM, 8 h): 5.37 ± 0.14

Sequence: TKLEERSRVKCDQYWPSRGTETHG [PTPRD]
- protein stability index (treatment: DMSO): 3.97 ± 0.14
- protein stability index (treatment: MLN4924 1 uM, 8 h): 3.71 ± 0.54

Sequence: LDSSLASLVGNLGISGTTTKKGDL [SNAP91]
- protein stability index (treatment: DMSO): 4.76 ± 0.24
- protein stability index (treatment: MLN4924 1 uM, 8 h): 4.73 ± 0.19

Sequence: AAANGGHVKIVKLLLAHKADVNAQ [ANKRD17]
- protein stability index (treatment: DMSO): 2.51 ± 0.31
- protein stability index (treatment: MLN4924 1 uM, 8 h): 2.68 ± 0.18

Sequence: CYNCEEEAMYHCCWNTSYCSIKCQ [ZMYND11]
- protein stability index (treatment: DMSO): 2.61 ± 0.52
- protein stability index (treatment: MLN4924 1 uM, 8 h): 2.79 ± 0.47

Sequence: FWDFAQGPLLDSLYWTKWYNNQSL [PKD2L1]
- protein stability index (treatment: DMSO): 2.3 ± 0.77
- protein stability index (treatment: MLN4924 1 uM, 8 h): 2.76 ± 0.94

Sequence: TDKLVTPGKYFSAAEYHAQRLKAV [IQUB]
- protein stability index (treatment: DMSO): 3.4 ± 0.21
- protein stability index (treatment: MLN4924 1 uM, 8 h): 3.19 ± 0.31

Sequence: MENLLQATKSHVDKVIMKLGKTNA [DYNC2LI1]
- protein stability index (treatment: DMSO): 3.24 ± 0.28
- protein stability index (treatment: MLN4924 1 uM, 8 h): 3.34 ± 0.38

Sequence: LESPIDPQPLSFKEPPLLLGVLHP [APMAP]
- protein stability index (treatment: DMSO): 3.43 ± 0.31
- protein stability index (treatment: MLN4924 1 uM, 8 h): 3.69 ± 0.24

Sequence: PEGIQKVAKCLIGVNYPKPMVNHA [CRY1]
- protein stability index (treatment: DMSO): 2.46 ± 0.18
- protein stability index (treatment: MLN4924 1 uM, 8 h): 2.87 ± 0.23

Sequence: YHPVKIGDLFNGRYHVIRKLGWGH [SRPK2]
- protein stability index (treatment: DMSO): 2.79 ± 0.55
- protein stability index (treatment: MLN4924 1 uM, 8 h): 2.24 ± 0.22

Sequence: ILVVTVQLILFGLSNQLAVTFREE [MCOLN1]
- protein stability index (treatment: DMSO): 3.02 ± 0.39
- protein stability index (treatment: MLN4924 1 uM, 8 h): 3.05 ± 0.23

Sequence: RWREGTKDSHDPLPSWAELLRPKY [PBXIP1]
- protein stability index (treatment: DMSO): 2.5 ± 0.21
- protein stability index (treatment: MLN4924 1 uM, 8 h): 2.96 ± 0.3

Sequence: VDTLTFQSQSLRDRARRFEEALRK [MTUS2]
- protein stability index (treatment: DMSO): 4.08 ± 0.2
- protein stability index (treatment: MLN4924 1 uM, 8 h): 4.14 ± 0.22

Sequence: LLEATGGAAGRSHHLDEDEERERI [KCTD10]
- protein stability index (treatment: DMSO): 5.25 ± 0.25
- protein stability index (treatment: MLN4924 1 uM, 8 h): 5.41 ± 0.35

Sequence: QFYMFGWTHVTLLIVVTQSHLVIH [CDS2]
- protein stability index (treatment: DMSO): 2.85 ± 0.37
- protein stability index (treatment: MLN4924 1 uM, 8 h): 3.31 ± 0.59

Sequence: SLRKAIETVYAAYLPKNTHPFLYL [MLH1]
- protein stability index (treatment: DMSO): 3.76 ± 0.68

Sequence: FKHPVIGVHVRRTDKVGTEAAFHP [FUT8]
- protein stability index (treatment: DMSO): 2.98 ± 0.31
- protein stability index (treatment: MLN4924 1 uM, 8 h): 3.13 ± 0.23

Sequence: AGSSHTPSSQSSSGGGRDSSSSIL [ELOA2]
- protein stability index (treatment: DMSO): 4.82 ± 0.26
- protein stability index (treatment: MLN4924 1 uM, 8 h): 4.78 ± 0.14

Sequence: LAIDAIHQLGFIHRDIKPDNLLLD [STK38L]
- protein stability index (treatment: DMSO): 2.23 ± 0.35
- protein stability index (treatment: MLN4924 1 uM, 8 h): 2.04 ± 0.31

Sequence: YNSSRFGEGVERELFVREPTGRLP [MYORG]
- protein stability index (treatment: DMSO): 3.62 ± 0.22
- protein stability index (treatment: MLN4924 1 uM, 8 h): 3.73 ± 0.43

Sequence: RFYLPLLIHQHEKVIYLDDDVIVQ [GLT8D2]
- protein stability index (treatment: DMSO): 2.32 ± 0.56
- protein stability index (treatment: MLN4924 1 uM, 8 h): 1.97 ± 0.25

Sequence: FHELQMQVTASDSGDPPLSSNVSL [PCDHGA10]
- protein stability index (treatment: DMSO): 2.93 ± 0.49
- protein stability index (treatment: MLN4924 1 uM, 8 h): 3.38 ± 0.54

Sequence: LTYACENGHTDVADVLLQAGADLE [ANKRD17]
- protein stability index (treatment: DMSO): 4.3 ± 0.16
- protein stability index (treatment: MLN4924 1 uM, 8 h): 4.68 ± 0.35

Sequence: TTGLQVPSAVRCLQKRGSATSSSN [FSD1]
- protein stability index (treatment: DMSO): 4.13 ± 0.12
- protein stability index (treatment: MLN4924 1 uM, 8 h): 3.99 ± 0.14

Sequence: GHPVGLALEAAVHVQKLSQECLKQ [TRIM14]
- protein stability index (treatment: DMSO): 3.07 ± 0.2
- protein stability index (treatment: MLN4924 1 uM, 8 h): 3.14 ± 0.28

Sequence: SVLQSVWMEVLVLGVAQRSLPLQD [ESRRA]
- protein stability index (treatment: DMSO): 3.62 ± 0.79
- protein stability index (treatment: MLN4924 1 uM, 8 h): 3.38 ± 0.57

Sequence: ALCMLAQSSPSFAEKCLDFLVDMF [INTS4]
- protein stability index (treatment: DMSO): 1.86 ± 0.1
- protein stability index (treatment: MLN4924 1 uM, 8 h): 2.35 ± 0.064
